Experimental findings from patent US20220324943A1 (UNIVERSITY OF FLORIDA RESEARCH FOUNDATION, published 2022) are described below.

The target in one test is T1, acidic FGF (UniProt P05230 16-155, limits assumed).
T1 construct: also called acidic FGF ligand
Put plainly: SPR, FGFR1-CCD injected over immobilized ligand. As for the experimental part:
Using a surface plasmon resonance (SPR) technique, the binding kinetics of FGFR1 was measured with two ligands, basic FGF and acidic FGF. A null FGFR1 ligand, vascular endothelial growth factor A (VEGFA), was used as a control. In SPR experiments, the binding of a molecule in the soluble phase (e.g. the peptide of the fusion protein) to a ligand molecule immobilized on a sensor surface is directly measured as a reflected light signal (SPR signal) in a biosensor device. The sensor device may contain an LED-emitting near infrared light, a glass prism fixed to a sensor microchip, and a position-sensitive diode array detector. Binding events cause changes in the refractive index at the surface layer, which are detected as changes in the SPR signal. Specifically, a signal arises when incident LED light is totally internally reflected from the metal-coated interface between two media of different refractive indices (the glass prism and solution). When the incident light is focused on the surface in a wedge, the drop in intensity at the resonance angle appears as a “shadow” in the reflected light wedge, which is detected by the detector. […]
This sensorgram consists of two phases: (Left) In the association phase, the FGFR1-CCD was injected over immobilized ligands on the surface. […] Binding kinetics, including the value of KD, the dissociation constant, can be calculated from the sensorgram.
(Surface plasmon resonance follows binding to a sensor surface in real time, without labels.)

Test [1] deals with T2, amyloid beta peptide (Aβ) (UniProt P05067 672-713).
T2 construct: also called Aβ9; Aβ9 ligand
Put plainly: ELISA on plates coated with Aβ42 peptide, detection with anti-FLAG M2 HRP ('Ab9 scFv activity, Aβ42 ELISA'). How it is done:
An ELISA-based assay was performed to assess Aβ9 scFv activity. 96-well plates were coated with Aβ42 peptide, and 293T conditioned media (containing the GBA-CCD and GBA-CCD-Aβ9 scFv proteins) and cell lysate were then added and incubated for 6 hours. ELISA was developed with anti-FLAG M2 HRP. (See FIG. 23.)
For orientation: An ELISA detects its analyte on a solid surface through an enzyme-linked reagent.

T1 sequence (P05230 16-155 limits assumed): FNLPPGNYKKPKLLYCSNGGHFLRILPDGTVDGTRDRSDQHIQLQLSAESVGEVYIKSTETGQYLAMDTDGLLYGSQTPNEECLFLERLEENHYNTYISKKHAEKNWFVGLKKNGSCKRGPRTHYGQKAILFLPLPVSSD
T2 sequence (P05067 672-713): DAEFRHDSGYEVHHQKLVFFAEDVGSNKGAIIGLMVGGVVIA

B1: FGFR1-CCD fusion protein (receptor)
chain: RPSPTLPEQAQPWGAPVEVESFLVHPGDLLQLRCRLRDDVQSINWLRDGVQLAESNRTRITGEEVEVQDSVPADSGLYACVTSSPSGSDTTYFSVNVSDALPSSEDDDDDDDSSSEEKETDNTKPNPVAPYWTSPEKMEKKLHAVPAAKTVKFKCPSSGTPNPTLRWLKNGKEFKPDHRIGGYKVRYATGSIIMDSVVPSDKGNYTCIVENEYGSINHTYQLDVVERSPHRPILQAGLPANKTVALGSNVEFMCKVYSDPQPHIQWLKHIEVNGSKIGPDNLPYVQILKTAGVNTTDKEMEVLHLRNVSFEDAGEYTCLAGNSIGLSHHSAWLTVLEALEERPAVMLKEFMGYQGPPGPPGPPGIPGNHGNNGNNGATGHEGAKGEKGDKGDLGPRGERGQHGPKGEKGYPGIPGYCGPPGPPGPPGIPGNHGNNGNNGATGHEGAKGEKGDKGDLGPRGERGQHGPKGEKGYPGIPDYKDDDDKLQISSTVAAAHHHHHHV
notes: CCD fusions are said to form multimers (trimers, hexamers); It was expressed in cells, isolated and purified; also called Fibroblast growth factor receptor 1 (hsFGFR1) CCD fusion
The term Kd denotes the equilibrium constant for the complex coming apart. Read a low Kd as tighter binding. With B1, the dissociation constant (Kd) with acidic FGF was < 1 pM.

B2: GBA_AB9 (scFv)
fusion protein monomer: ARPCIPKSFGYSSVVCVCNATYCDSFDPPTFPALGTFSRYESTRSGRRMELSMGPIQANHTGTGLLLTLQPEQKFQKVKGFGGAMTDAAALNILALSPPAQNLLLKSYFSEEGIGYNIIRVPMASCDFSIRTYTYADTPDDFQLHNFSLPEEDTKLKIPLIHRALQLAQRPVSLLASPWTSPTWLKTNGAVNGKGSLKGQPGDIYHQTWARYFVKFLDAYAEHKLQFWAVTAENEPSAGLLSGYPFQCLGFTPEHQRDFIARDLGPTLANSTHHNVRLLMLDDQRLLLPHWAKVVLTDPEAAKYVHGIAVHWYLDFLAPAKATLGETHRLFPNTMLFASEACVGSKFWEQSVRLGSWDRGMQYSHSIITNLLYHVVGWTDWNLALNPEGGPNWVRNFVDSPIIVDITKDTFYKQPMFYHLGHFSKFIPEGSQRVGLVASQKNDLDAVALMHPDGSAVVVVLNRSSKDVPLTIKDPAVGFLETISPGYSIHTYLWRRQLKEFMGYQGPPGPPGPPGIPGNHGNNGNNGATGHEGAKGEKGDKGDLGPRGERGQHGPKGEKGYPGIPGYCGPPGPPGPPGIPGNHGNNGNNGATGHEGAKGEKGDKGDLGPRGERGQHGPKGEKGYPGIPDYKDDDDKLQISGGGGSGGGGSQVTLKESGPGILQPSQTLSLTCSFSGFSLNTFGMGVSWIRQPSGKGLEWLAHIFWDDDKHYNPSLKSRLTISKDTSNNQVFLKITTVDTADTATYYCVRYGFDGFPYWGQGTLVTVSAGGGGSGGGGSGGGGSDVVMTQTPLSLPVSLGDQASISCRSNQSLVHSNGNTYLHWYLQKPGQSPKLLIYKVSNRFSGVPDRFSGSGSGTDFTLKISRVEAEDLGFYFCSQSTRVPWTFGGGTKLELKRAAAHHHHHHV
notes: fusion of glucocerebrosidase, CCD and Aβ9 scFv; tested as conditioned media and as protein purified from media and lysate; also called hGBA-CCD-Aβ9 scFv; GBA-CCD-antiAβ9 scFv fusion protein
Consider B2, for which the binding result in test [1] is given as “binds”.
